Data published in article PMC5114558, “Reader domain specificity and lysine demethylase-4 family function” (Nature Communications, 2016).

What was measured:
Experiment in all cases: fluorescence polarisation; fluorescein-labelled histone peptide 3 nM, KDM4 DTD titrated 0.1-100 μM; 30 mM HEPES, 150 mM NaCl pH 7.4, 0.01% Triton X-100
[1] = target: H3 (17-32) K23me3 peptide, fluorescein-labelled (UniProt P68431)
[2] = target: H3K23me3R26A peptide, fluorescein-labelled
[3] = target: H3K23me1 peptide (monomethylated H3K23), fluorescein-labelled
[4] = target: H3K23me3R26me2a peptide, fluorescein-labelled
[5] = target: H3T22phK23me3 peptide, fluorescein-labelled
[6] = target: H3K23me2 peptide (dimethylated H3K23), fluorescein-labelled

Kd [1]	Kd [2]	Kd [3]	Kd [4]	Kd [5]	Kd [6]	Substance
10.3 µM						KDM4B double tudor domain (KDM4B-DTD), HaloTag-tagged, wild type (from UniProt O94953 917-1031) (domain or fragment)
2.2 µM	32.3 µM	98.5 µM	8.7 µM	83.7 µM	9.06 µM	KDM4A double tudor domain (KDM4A-DTD), HaloTag-tagged, wild type (from UniProt O75164 895-1011) (domain or fragment)
